Source: US6372467

How the values were obtained:
[1] = target: Glutathione-S-transferase (GST)-tagged S6

Protein	in vitro kinase assay (phosphorylation of GST-S6 by anti-HA immunoprecipitates) [1]	in vitro kinase assay (screen of substrates) (histone H2B)
hemagglutinin (HA)-tagged p54^S6K (protein) MAAVFDLDLETEEGSEGEGEPELSPADACPLAELRAAGLEPVGHYEEVELTETSVNVGPERIGPHCFELLRVLGKGGYGKVFQVRKVQGTNLGKIYAMKVLRKAKIVRNAKDTAHTRAERNILESVKHPFIVELAYAFQTGGKLYLILECLSGGELFTHLEREGIFLEDTACFYLAEITLALGHLHSQGIIYRDLKPENIMLSSQGHIKLTDFGLCKESIHEGAVTHTFCGTIEYMAPEILVRSGHNRAVDWWSLGALMYDMLTGSPPFTAENRKKTMDKIIRGKLALPPYLTPDARDLVKKFLKRNPSQRIGGGPGDAADVQRHPFFRHMNWDDLLAWRVDPPFRPCLQSEEDVSQFDTRFTRQTPVDSPDDTALSESANQAFLGFTYVAPSVLDSIKEGFSFQPKLRSPRRLNSSPRVPVSPLKFSPFEGFRPSPSLPEPTELPLPPLLPPPPPSTTAPLPIRPPSGTKKSKRGRGRPGR	p54^S6K kinase activity towards S6 was stimulated by serum treatment of the cells	p54^S6K can phosphorylate both S6 and histone H2B
HA-p54^S6K KR (protein) MAAVFDLDLETEEGSEGEGEPELSPADACPLAELRAAGLEPVGHYEEVELTETSVNVGPERIGPHCFELLRVLGKGGYGKVFQVRKVQGTNLGKIYAMRVLRKAKIVRNAKDTAHTRAERNILESVKHPFIVELAYAFQTGGKLYLILECLSGGELFTHLEREGIFLEDTACFYLAEITLALGHLHSQGIIYRDLKPENIMLSSQGHIKLTDFGLCKESIHEGAVTHTFCGTIEYMAPEILVRSGHNRAVDWWSLGALMYDMLTGSPPFTAENRKKTMDKIIRGKLALPPYLTPDARDLVKKFLKRNPSQRIGGGPGDAADVQRHPFFRHMNWDDLLAWRVDPPFRPCLQSEEDVSQFDTRFTRQTPVDSPDDTALSESANQAFLGFTYVAPSVLDSIKEGFSFQPKLRSPRRLNSSPRVPVSPLKFSPFEGFRPSPSLPEPTELPLPPLLPPPPPSTTAPLPIRPPSGTKKSKRGRGRPGR	The KR mutation of p54^S6K abolished the kinase activity in an in vitro kinase assay	–
